Biological target: recombinant human α-synuclein (human) (UniProt P37840)

- EC50 of the loss of synaptophysin (ELISA) in mouse cortical neurons incubated 24 hours with αSN premixed with Aβ1-42 (1:50); αSN alone 500 nM: 25 nM
Substance: amyloid-β 1-42 synthetic peptide
